In the nanobody polyreactivity screen of Harvey et al. (2022):

Experiment: yeast display, Sf9 membrane polyspecificity reagent, FACS + sequencing; frameworks hold sequencing errors
Method in brief: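 A nanobody's polyreactivity label depends on the gate it was sorted from. Yeast display cells were stained with 10% biotinylated, detergent-solubilized Sf9 membrane reagent for 1 hour at 4 °C, enriched on streptavidin microbeads and sorted by FACS. The low and high (top ~1%) gates were set on anti-HA fluorescence for expression and streptavidin fluorescence for reagent binding.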

Sequence	polyreactivity (PSR sort gate)
QVQLVESGGGLVQAGGSLRLSCAASGRTFFIYAMGWYRQAPGKERELVAAISNGGSTNYADSVKGRFTISRDYAKNTVYLQMISLKPEDTAVYYCAAQYIGNLRGVFHYEFDWGQGTQVTVSS	high polyreactivity
QVQLVESGGGLVQAGGSLRLSCAASGRIFRSYAMGWYRQAPGKERELVAAITGSTGSTSYADSVKGRFTISRDNAKNTVYLQMNSLKPEDTAGYYCNAEYSSGYGQSHTYFYEYDYWGHGTQVTVSS	low polyreactivity
QFQLVESGGGLVQAGGSLRLSCAASGSILDGNTMGWYRQAPGKERELVDAISSLATSTYYADSVKGRFTISRDNAKNTVYLQINSLKPEDTAVYYCAALVRRKRTTSGDDYWGQGTQVTVSS	high polyreactivity
QVQLVESGGGLVQAGGSLRLSCAASGSTFVWYAMGWYRQAPGKESELVAVIDWSGGSTSYADSVKGRFTISRDNAKNTVYLQMNSLKPEDTAVYYCAAQLGVISRGNYWGQGTQVTVSS	low polyreactivity
QVQLVESGGGLVQAGGSLRLSCADSGFILSPNTMGWYRQAPGKERELVAAMSSDVSTYADSVTGRFTISRDNAKNTVYLQMNSLKPEDTAVYYCNADDFGYASYEYWGQGTQVTVSS	low polyreactivity
QVQLVESGGGLVQAGGSLRLSCADSGYTFGRNAMGWYRQAPGKERELVATISQRGGSTYYADSVKGRFTISLDNAKNTVYLQLNSLKPEDTAVYYCAAGPIYRYRRYYYWGQGTQVTVSS	high polyreactivity
QVQLVESGGGLVQAGGSLRLSCAASGGTFPYNAMGWYRQAPGKEREFVAAISYTGGSTYYADSVKGRFTISRDNAKNTVYLQMNSLKPEDTAVYYCATEHTRTASGYWGQGTQVTVSS	low polyreactivity
QVQLQESGDGLVQAVGSLRLSCAASGNISGDYYMGWYRQAPGKERELVAGIDAFGSSTNYADCVKGRFTISRDNAKNTVYLQMNRLKPEDTAVYYCAARPDGDRLFSYWGQGTQVTVSS	low polyreactivity
QVQLVESGGGLVQAGGSLRLSCAASGRTFPYNAMGWSRQAPGKERELVAVISSGGGRTYYADSVKGRFTISRDNAKNTVYLQMNSLKPEDTAVYYCNKGGYAIRYDYYWGQGTQVTVSS	high polyreactivity
QVQLVESGGGLVQAGGSLRLSCAASGLIFFFYAMGWYRQAPGKERELVASISGGGITYYADSVKGRFTISRDNAKNTVYLQMNSLKPEDTAVIKNDYWGQGTQVTVSS	low polyreactivity
QVQLVESGGGLVQAGGSLRLSCAASGSTFTDYDMGWYRPAPGKERELVAAISSGGSTYYADSVKGRFTISRDNAKNTVYLQMNSLKPEDTAVYYCAAVLGVWGGVGSEGDYWGQGTQVTVSS	low polyreactivity
QVQLVESGGGLVQAGGSLRLSCAASGCTFVSYAMGWYRQEPGKEREFVAAIAWTGGSTRYADSVKGRFTISRDNAKNTVYLQMNSLKPEDTAVYYCAARYRHYLYGYDYWGQGTQVTLSS	low polyreactivity
QVQLVESGGGLVKAGGSLRLSCAAYGIIYYPYAMGRYRHAPGKEWELVAAIDRSGSSTYYADSVKGRFTISRDNAKNTVYVQMNSLKPEDTAVYYCAAAHTYFTAYGDYWGQGTQVTVSS	low polyreactivity
QVQLVESGGGLFQAGGRLRLSCAASGYTFYLNAMGWYRQAPGKEREFVAVIDDSGDSTDYADSVKGRFTISRDNAKNTVYLQMHSLKPEDTAVYYCAANEGGTGDDYWGQGTQVTVSS	low polyreactivity
QVQLVESGGGLVQAGGSLRLSCAASGLTFGVYAMGWYRQAPGKERELVASIRSGGSTYYADSVKGRFTISRDNAKNTVYLQMNSLKPEDTAVYYCAKGTFDLHYRKRYNYWGQGTQVTVSS	low polyreactivity
QVQLVESGGGLVQAGGSLRLSCAASGSTFKNYVMGWYRQAPGKERELVAAISRSGGRTYYADSVKGRFTISRDNAKNTVYLQMYSLKPEVTAVYYCATPDQVELSSYDYWGEGTQVTVSS	high polyreactivity
QVQLVESGGGLVQAGGSLRLSCAASGITFSYNVMGWYRQAPGKERELVAAISDGGSTYYADSVKGRFTISRDNAKNTVYLQMNSLKPEDTAVYYCAADSPVDYLYALYLYVRDDYWGQGTQVTVSS	low polyreactivity
QVQLVESAGGLVQAGGSLRLSCAASGRTLTGNALGWYRQAPGKESELVAAITARGGSTKYADSVKGRFTISRDNAKNTVYFLMNSLKPEDTAVFYCAAGCWYYLHMDYWGQGTQVTVSS	high polyreactivity
QVQLVESGGGLVQAGGSLRLSCAASGSIFYTNALGWSRQARGKERELVAAMSISGSTYYADSVKGRFTISRDNAKNTVYLQMNSLKPEDTAVYYCAAGPGYVRYPRSGVWYVTLYDYWGQGTQVTVSS	high polyreactivity
QVQLQESNGGLVQAGGCLRLSCAASGNIFDADIMGWFRKAPGIERELVASITDGGSTNYADSVKGRFTINRDNALNTVYLQMYSLKPEDTAVYYCAVSYKGWYQLGYWGQGTQVTVSS	high polyreactivity
QVQLVESGGGLVQAGGSLSLSCAASGSTFYPYAMGWYRQAPGTERELVAAISSGGSTSYADSVKGRFTISRDNAKNTVYLQMNSLKPEDTAVYYCAAEGPEIKYYYWGQGTQVTVSL	low polyreactivity
QVQLVESGGGLVQAGGSLRLSCAASGSIYSSYAMGWYRQAPGKERELVAAISSSGDSTYADSVKGRFTISRDNAKNTVYLQMNSLKPEDTAVYYCAVGGAGSDDYWGQGTQVTVSS	low polyreactivity

Sequence	polyreactivity (PSR sort gate)
QVQLVESGGGIVQAGRSLRVSCADSGSAFPRYDMGWYRPAPGKERELVAAISRGGSTNYADSVKGRFTLSRDNATNSVSLQMFCLIPVDPAVYYCAAQIFESAYGIVYWGQRTQVTVSS	low polyreactivity
QVQLVESVGGLVQAGGSLRLSCAASGSTFIQYAMGRYRHAPGKERELVASNSRSAGSTYYADSVKGRFTISRDNAKNTVYLQMNSLKPEDTAVYYCAADSYYLGYYLGSYSWDYGYWGQGTQVTVSS	high polyreactivity
QVQLVESGGGLVQAGGSLRLSCAASGIIFAGNAMGWYRQAPGKERELVAAISSGTTTNYADSVKGRFTISRDNAKNTVYLQMNRLKPEDTAVYYCAADDFPYKSDYWGQGTHVTVSS	low polyreactivity
QVQLVESGGGLVQAGGSLRLTCAASGRIFRYYAMGWYRQAPGKERELVATISRGGSTTYADSVKGRFTISRDNAKNTVYLQMNSLKPEDTAVYYCDARFGSTYDYWGQGTQVTVSS	low polyreactivity
QVQLVESGGGLVQAGGSLRLSCAASGFIFNRYAMGWYRQAPGKERELVAAISYRGGGTYYADSVKGRFTISRDNAKNTVYLQMNSLKPEDTAVYYCAADSSYYYPMDYWGQGTQVTVSS	high polyreactivity
QVQLVESGGGLVQAGGSLRLSCAASGSTFFRYAMGWYRQAPGKEREFVAAITWSGTGTYYADSVKGRFTISRDNAENTVYLQMNSLKPEDTAVYYCNAEPFDLWAFYYGYVYGYYHWGQGTQVTVSS	high polyreactivity
QVQLVESGGCLVQAGGSLRLSCAASGRTFDINDMGWYRQAPGKEREFVAAIDRSGGNTYYADSVKGRFIISRDNAKNTVYLQMNSLKPEDTAVYYCAADSPYVVAWPYVWYFTFDYWGQGTQVTVTS	low polyreactivity
QVQLVESGGGLVQAGGSLRLTCAASGSTFVLYARGWYRQAPGKERELVAAITRRGGDTYYADSVKGRFTISRDNAKNTVYLQMNSLKPEDTAVYFCATDYTTYGRYDYWGHGTQVTVSS	low polyreactivity
QVKLVESGGGLVKAGGRLRLSCAASGRTFWYNAMGRYRPAPGKESELVAAINFSGGITYYADSVKGRFTISRDNAKNTVYLQMNSLKPEDTAVYYCNAVSRGRDAAGNYWGQGTQVTVSS	high polyreactivity
QVQLVESGGGLVQAGGSLRLSCAASGRTFAVYAMGWYRQAPGKERELVATINGGGNTNYADSVKGRFTISRDNAKNTVYLQMNSLKPVDTAVYYCAADAWDHWTWFYPTNGMDYWGQGTQVTVSS	low polyreactivity
QVQLVESGGGLVQAGGSLRLSCAASGSTFKYNAMGWYRQAPGKERELVASISRSGGSTYYADSVKGRFTISRDNAKNTVYLQMNSLKPEDTAVYYCAVRVSSHPVYHYNYWGQGTQVTVSS	high polyreactivity
QVQLVDSGGGLVQAGGSLRLSCAASGSTFFFNDLGWSRQAPGKESEFVAGISSSGGSTHYADSVKGRFTISRDKAKNTVYFQMNSLKPEDTAVYYCNTLRNWYYQFDFNYWGQGTQVTVSS	low polyreactivity
QVQLVESGGGLVQAGGSLRLSCAASGFIFVANAMGWYRQAPGKERELVADINRGSTYYADSVKGRFTISRDNAKNTVYLQMNSLKPEDTAVYYCNRVYTQTYNPWGFEYWGQGTQVTVSS	high polyreactivity
QVQLVESGGGLVQAGGSLRLSCAASGSTFATYAMGWYRQAPGKERELVAAITSGGSTYYADSVKGRFTISRDNAKNTFYFQMNSLKPEDTAVYYCAARSAGWRRATYYKREEYWGQGTQVTVSS	high polyreactivity
QVQLVDSGGGLVQAGGSLRLTCAASGNTFYYYAMGWYRQAPGKERELVAAINRGGNTYYADSVKGRFTISRDNAKNTVYLQMNSLKPEDTAVYYCAKRKSNPGNRQEYYYWGQGTQVTVSS	low polyreactivity
QFQQVESGGGLVQAGGSLRLSCAATGSIFSYTMGWYRQAPGKERELVAAITSGGITYYADSVKGRFTISRDNAKNTVYLQMNSLKPEDSAVYYCNAYYPYGLASFYYWGQGTQVTVSS	low polyreactivity
QVQLVESGGGLVQAGGRLRLSCAASGRTFIANVMGWYIQAPGKERELVAAITSGGGTSYADSVKGRFTISRDNAKNTVYLQMNSLKPEDTAVYYCNADGYLAERFVIRLDEYRDYDYWGQGTQVTVSS	low polyreactivity
QVQLVESGGGLVQAGGSLRLSCAASGSTFHRNTLGWYRQAPGKERELVAGISLRGVRTYYADSVKGRFTISRDNAKNSVYLQMNSLKPEDTAVYYCAALYYYGYDYWGQGTQVTVSS	high polyreactivity
QVQLVESGGGLVQAGGSLRLRCAASGRTFRTYTMGWYRKAPGKERELVAAISYSGGSTYYADSVKGRFTISRDNAKNTVYLQMNSLKPEDTAVYYCAIRPYPYKYDYWGQGTQVTVSS	high polyreactivity
QVQLVESGAGLVQAGGSLRLSCAASGRTFYWYVMGWYRQAPGKERELVAAITQTGSSTYYADSVKGRFTISRDYAKNTVYLQMNSLKPEDTAVYYWAAEASSVPGYDYWGQGTQVTVSS	low polyreactivity
QVQLVESRGGLVQAGGSLLLRCAASGSTITRNAMGWYRQAPGKERELVAAITSGGGTNYADSVKGRFTISRDNAKNTVYLQMNSLKPEDTAVYYCADRYWRFYTKRGYWGQGTQVTVSS	high polyreactivity
